One substance from paper doi:10.1101/2023.04.11.536446 can be followed below.

In the test the target is Langya virus fusion protein (LayV-F) ectodomain, uncleaved (Langya virus). The test is described as follows: cryo-EM structure.

One may read the stoichiometry N as a count of units in the complex or per binding partner.

The substance “Langya virus fusion protein (LayV-F) ectodomain, uncleaved (domain or fragment)” came in with a stoichiometry N of 3.
